One assay deals with bsfAb ET2F9. Put plainly: flow cytometry. (A flow cytometer gives signals particle by particle.)
In the next assay the target is bsfAb ET1F8. Put plainly: flow cytometry.
The target of the next assay is sdAb c7b. Kind of assay: ELISA; table printed under the ELISA plot; legend values suggest HEK-293 cells.
Assay [1] addresses T1, recombinant human NKG2D/Fc chimera (R&D Systems) (human, UniProt P26718 78-216).
T1 chain: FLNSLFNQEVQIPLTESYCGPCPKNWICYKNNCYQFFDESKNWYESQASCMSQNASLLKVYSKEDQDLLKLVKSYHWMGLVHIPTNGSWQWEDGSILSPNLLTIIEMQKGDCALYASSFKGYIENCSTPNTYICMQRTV
The assay is described as above.

The target in assay [2] is T2, NKG2D on HEK-293T cells co-transfected with NKG2D and DAP10 (UniProt P26718 1-216).
T2 chain: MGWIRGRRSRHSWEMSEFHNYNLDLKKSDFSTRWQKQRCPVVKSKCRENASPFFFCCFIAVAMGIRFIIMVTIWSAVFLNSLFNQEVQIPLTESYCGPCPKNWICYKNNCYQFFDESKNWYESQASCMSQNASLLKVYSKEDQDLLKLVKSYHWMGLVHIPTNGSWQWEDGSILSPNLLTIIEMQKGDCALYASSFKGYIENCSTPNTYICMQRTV
Kind of assay: flow cytometry; table printed under the HEK-293 plot; legend values suggest ELISA.

As a reminder, the Kd is the concentration at which binding is half-saturated.

B1: transfected HEK-293 (receptor)
chain: T2 chain
Turning to B1, the Kd stood at 33.2 nM with bsfAb ET2F9 and 32.5 nM with bsfAb ET1F8.

B2: Fc-NKG2D (Fc fusion)
chain: T1 chain
In the assay with sdAb c7b, B2 yielded a Kd of 6.07 nM.

B3: sdAb ET2F9 (VHH)
VHH: QVQLVQSGGGLVQPGGSLRLSCAASGFTFDDYAMSWVRQAPGKGLEWVSAISWSGRTTYYAESMKGRFTTSRDNAKNTLYLQMNSLKPEDTALYYCARGDVAIRGNLDAWGQGTQVTVSS
As for B3, the Kd was 1710 nM in assay [1] and 41.1 nM in assay [2].

Values taken from patent US20180327499A1 (published 2018).
